According to PMC12412624, “Engineered Cas12j‐8 is a Versatile Platform for Multiplexed Genome Modulation in Mammalian Cells”:
Positions count from the first letter of the chain named.

Experiments:
[1] = target: T1, Cas12j-8 E258R+D313R+D495R+D527R+E547R (bacteriophage (metagenome), E258R;D313R;D495R;D527R;E547R); assay: HEK293T cells; conditions: tags: NLS
T1 chain: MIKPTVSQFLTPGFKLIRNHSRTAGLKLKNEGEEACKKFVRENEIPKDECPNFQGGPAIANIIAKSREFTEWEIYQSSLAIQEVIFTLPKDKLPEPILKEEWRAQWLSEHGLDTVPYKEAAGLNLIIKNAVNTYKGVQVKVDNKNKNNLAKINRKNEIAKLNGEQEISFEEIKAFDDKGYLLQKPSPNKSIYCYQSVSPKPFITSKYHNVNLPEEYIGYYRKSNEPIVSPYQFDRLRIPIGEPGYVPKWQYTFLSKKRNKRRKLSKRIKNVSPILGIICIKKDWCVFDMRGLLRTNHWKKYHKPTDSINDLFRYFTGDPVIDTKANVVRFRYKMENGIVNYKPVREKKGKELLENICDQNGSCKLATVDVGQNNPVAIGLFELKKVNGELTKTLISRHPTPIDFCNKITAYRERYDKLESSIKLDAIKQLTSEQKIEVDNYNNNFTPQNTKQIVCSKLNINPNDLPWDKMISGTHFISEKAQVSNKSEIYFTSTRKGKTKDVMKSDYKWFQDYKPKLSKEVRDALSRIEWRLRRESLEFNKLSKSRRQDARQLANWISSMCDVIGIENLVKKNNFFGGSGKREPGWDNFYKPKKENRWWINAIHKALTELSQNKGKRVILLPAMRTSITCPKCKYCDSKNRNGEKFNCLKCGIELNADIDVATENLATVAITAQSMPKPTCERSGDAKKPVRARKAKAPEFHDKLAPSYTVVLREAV

Cas12j-8 WT = target: T2, Cas12j-8 WT (bacteriophage (metagenome)); assay: HEK293T cells; conditions: tags: NLS
T2 chain: T1 chain with R258E, R313D, R495D, R527D, R547E

B1: cishsite2 (mixed)
RNA: CUUUCAAGACUAAUAGAUUGCUCCUUACGAGGAGACGCUCACUCUCUGUCUGGGCU
DNA 1: TTGGCTCACTCTCTGTCTGGGCT
DNA 2: AGCCCAGACAGAGAGTGAGCCAA
indel frequency [1]: 16.3 % indels

B2: tcfsite3 (mixed)
RNA: CUUUCAAGACUAAUAGAUUGCUCCUUACGAGGAGACCUAAACCAAGUCCCAGACAU
DNA 1: TTCCTAAACCAAGTCCCAGACAT
DNA 2: ATGTCTGGGACTTGGTTTAGGAA
indel frequency (Cas12j-8 WT): 3.82 % indels

B3: ccr5site5 (mixed)
RNA: CUUUCAAGACUAAUAGAUUGCUCCUUACGAGGAGACGAAAUACAAUGUGUCAACUC
DNA 1: TTGGAAATACAATGTGTCAACTC
DNA 2: GAGTTGACACATTGTATTTCCAA
indel frequency [1]: 54 % indels
indel frequency (Cas12j-8 WT): 12.1 % indels

B4: tigitsite4 (mixed)
RNA: CUUUCAAGACUAAUAGAUUGCUCCUUACGAGGAGACUAGGACCUCCAGGAAGAUUC
DNA 1: TTCTAGGACCTCCAGGAAGATTC
DNA 2: GAATCTTCCTGGAGGTCCTAGAA
indel frequency [1]: 28.3 % indels

B5: ccr5site9 (mixed)
RNA: CUUUCAAGACUAAUAGAUUGCUCCUUACGAGGAGACAGAUCUGGUAAAGAUGAUUC
DNA 1: TTGAGATCTGGTAAAGATGATTC
DNA 2: GAATCATCTTTACCAGATCTCAA
indel frequency [1]: 72.7 % indels
indel frequency (Cas12j-8 WT): 45.4 % indels

B6: cd274site6 (mixed)
RNA: CUUUCAAGACUAAUAGAUUGCUCCUUACGAGGAGACGUUGUGGAUCCAGUCACCUC
DNA 1: TTGGTTGTGGATCCAGTCACCTC
DNA 2: GAGGTGACTGGATCCACAACCAA
indel frequency [1]: 59.2 % indels
indel frequency (Cas12j-8 WT): 21 % indels

B7: apobsite9 (mixed)
RNA: CUUUCAAGACUAAUAGAUUGCUCCUUACGAGGAGACCAAGCAGAAGCCAGAAGUGA
DNA 1: TTGCAAGCAGAAGCCAGAAGTGA
DNA 2: TCACTTCTGGCTTCTGCTTGCAA
indel frequency [1]: 15.6 % indels
indel frequency (Cas12j-8 WT): 1.17 % indels

B8: pcsk9site5 (mixed)
RNA: CUUUCAAGACUAAUAGAUUGCUCCUUACGAGGAGACUGUCACAGAGUGGGACAUCA
DNA 1: TTGTGTCACAGAGTGGGACATCA
DNA 2: TGATGTCCCACTCTGTGACACAA
indel frequency [1]: 61.2 % indels
indel frequency (Cas12j-8 WT): 25.8 % indels

B9: cxcr4site8 (mixed)
RNA: CUUUCAAGACUAAUAGAUUGCUCCUUACGAGGAGACAGCACAUCAUGGUUGGCCUU
DNA 1: TTCAGCACATCATGGTTGGCCTT
DNA 2: AAGGCCAACCATGATGTGCTGAA
indel frequency [1]: 36.5 % indels
indel frequency (Cas12j-8 WT): 10.9 % indels

B10: alas1site3 (mixed)
RNA: CUUUCAAGACUAAUAGAUUGCUCCUUACGAGGAGACGUGAUGAGGGAGUCUGAAUA
DNA 1: TTGGTGATGAGGGAGTCTGAATA
DNA 2: TATTCAGACTCCCTCATCACCAA
indel frequency [1]: 34.2 % indels
indel frequency (Cas12j-8 WT): 10.1 % indels

B11: tgfbr2site8 (mixed)
RNA: CUUUCAAGACUAAUAGAUUGCUCCUUACGAGGAGACCCAGGUUGAACUCAGCUUCU
DNA 1: TTCCCAGGTTGAACTCAGCTTCT
DNA 2: AGAAGCTGAGTTCAACCTGGGAA
indel frequency [1]: 51.6 % indels
indel frequency (Cas12j-8 WT): 14.8 % indels

B12: cxcr4site5 (mixed)
RNA: CUUUCAAGACUAAUAGAUUGCUCCUUACGAGGAGACGGAACUUCCUAUGCAAGGCA
DNA 1: TTGGGAACTTCCTATGCAAGGCA
DNA 2: TGCCTTGCATAGGAAGTTCCCAA
indel frequency [1]: 61.4 % indels
indel frequency (Cas12j-8 WT): 35.6 % indels

B13: angptl3site12 (mixed)
RNA: CUUUCAAGACUAAUAGAUUGCUCCUUACGAGGAGACCAGUCUUCCAACUCAAUUCG
DNA 1: TTCCAGTCTTCCAACTCAATTCG
DNA 2: CGAATTGAGTTGGAAGACTGGAA
indel frequency [1]: 22.2 % indels

B14: cd274site9 (mixed)
RNA: CUUUCAAGACUAAUAGAUUGCUCCUUACGAGGAGACCUCAGGAUCUAAUCUCCUAA
DNA 1: TTCCTCAGGATCTAATCTCCTAA
DNA 2: TTAGGAGATTAGATCCTGAGGAA
indel frequency [1]: 34.3 % indels
indel frequency (Cas12j-8 WT): 9.46 % indels

B15: sod1site5 (mixed)
RNA: CUUUCAAGACUAAUAGAUUGCUCCUUACGAGGAGACAUUAUUAGGCAUGUUGGAGA
DNA 1: TTCATTATTAGGCATGTTGGAGA
DNA 2: TCTCCAACATGCCTAATAATGAA
indel frequency [1]: 59.7 % indels
indel frequency (Cas12j-8 WT): 16.5 % indels

B16: vegfasite4 (mixed)
RNA: CUUUCAAGACUAAUAGAUUGCUCCUUACGAGGAGACUUGUGCUGUAGGAAGCUCAU
DNA 1: TTGTTGTGCTGTAGGAAGCTCAT
DNA 2: ATGAGCTTCCTACAGCACAACAA
indel frequency (Cas12j-8 WT): 5.55 % indels

B17: ccr5site10 (mixed)
RNA: CUUUCAAGACUAAUAGAUUGCUCCUUACGAGGAGACCAUACAGUCAGUAUCAAUUC
DNA 1: TTCCATACAGTCAGTATCAATTC
DNA 2: GAATTGATACTGACTGTATGGAA
indel frequency (Cas12j-8 WT): 4.92 % indels

B18: apobsite4 (mixed)
RNA: CUUUCAAGACUAAUAGAUUGCUCCUUACGAGGAGACGUGGCAAAUCCUCCAGAGAU
DNA 1: TTGGTGGCAAATCCTCCAGAGAT
DNA 2: ATCTCTGGAGGATTTGCCACCAA
indel frequency [1]: 27.8 % indels
indel frequency (Cas12j-8 WT): 11.9 % indels

B19: apobsite10 (mixed)
RNA: CUUUCAAGACUAAUAGAUUGCUCCUUACGAGGAGACGCAGGCGACCAGUGGGCGAG
DNA 1: TTGGCAGGCGACCAGTGGGCGAG
DNA 2: CTCGCCCACTGGTCGCCTGCCAA
indel frequency [1]: 22.1 % indels
indel frequency (Cas12j-8 WT): 8.3 % indels

B20: vegfasite3 (mixed)
RNA: CUUUCAAGACUAAUAGAUUGCUCCUUACGAGGAGACUGCUGUCUUGGGUGCAUUGG
DNA 1: TTCTGCTGTCTTGGGTGCATTGG
DNA 2: CCAATGCACCCAAGACAGCAGAA
indel frequency [1]: 77.4 % indels
indel frequency (Cas12j-8 WT): 44.7 % indels

B21: cishsite3 (mixed)
RNA: CUUUCAAGACUAAUAGAUUGCUCCUUACGAGGAGACACUGACAGCGUGAACAGGUA
DNA 1: TTCACTGACAGCGTGAACAGGTA
DNA 2: TACCTGTTCACGCTGTCAGTGAA
indel frequency [1]: 43.1 % indels
indel frequency (Cas12j-8 WT): 2.97 % indels

B22: tcfsite8 (mixed)
RNA: CUUUCAAGACUAAUAGAUUGCUCCUUACGAGGAGACCAGGCUCUGACUCAGGGAAG
DNA 1: TTGCAGGCTCTGACTCAGGGAAG
DNA 2: CTTCCCTGAGTCAGAGCCTGCAA
indel frequency (Cas12j-8 WT): 2.92 % indels

B23: ccr5site4 (mixed)
RNA: CUUUCAAGACUAAUAGAUUGCUCCUUACGAGGAGACCUUCUUACUGUCCCCUUCUG
DNA 1: TTCCTTCTTACTGTCCCCTTCTG
DNA 2: CAGAAGGGGACAGTAAGAAGGAA
indel frequency [1]: 68.7 % indels
indel frequency (Cas12j-8 WT): 28.2 % indels

B24: alas1site9 (mixed)
RNA: CUUUCAAGACUAAUAGAUUGCUCCUUACGAGGAGACGCAUGACUCCAUCCCGAUCC
DNA 1: TTGGCATGACTCCATCCCGATCC
DNA 2: GGATCGGGATGGAGTCATGCCAA
indel frequency [1]: 44 % indels
indel frequency (Cas12j-8 WT): 20 % indels
